Test results published in patent publication US20070172423A1, “Composition and method for modulating vasculogenesis for angiogenesis” (priority 1998, published 2007).

Assays:
[1] = test system: human foreskin fibroblasts; test: Mitogenicity for fibroblasts ([3H]thymidine incorporation); format: cell-based; settings: 3, 10 or 30 ng/ml, 24 hours
Protocol: The assay was performed essentially as described in Mori et al., J. Biol. Chem., 1991 266:21158-21164. Serum starved human foreskin fibroblasts were incubated for 24 hours with 1 ml of serum-free medium supplemented with 1 mg/ml BSA and 3 ng/ml, 10 ng/ml or 30 ng/ml of full length PDGF-CC (flPDGF-CC), truncated PDGF-CC (cPDGF-CC) or PDGF-AA in the presence of […] [3H]thymidine. After trichloroacetic acid (TCA) precipitation, the incorporation of [3H]thymidine into DNA was determined using a beta-counter. […] PDGF-AA is included in the experiment as a control.

[2] = target: T1, PDGF alpha receptors (Homo sapiens, UniProt P16234); test: Competition with 125I-PDGF-BB for binding to PAE-1 cells expressing PDGF alpha-receptor; parameters: expressed in transfected cells; settings: 5 ng/ml 125I-PDGF-BB tracer, on ice 90 minutes
Protocol: (§1) Next, full length and truncated PDGF-C were tested for their capacity to bind to human PDGF receptors alpha and beta by analyzing their abilities to compete with PDGF-BB for binding to PDGF receptors. The binding experiments were performed on porcine aortic endothelial-1 (PAE-1) cells stably expressing the human PDGF receptors alpha and beta (Eriksson et al., EMBO J, 1992, 11, 543-550). Binding experiments were performed essentially as in Heldin et al. (EMBO J, 1988, 7:1387-1393). Different concentrations of human full-length and truncated PDGF-C, or human PDGF-BB were mixed with 5 ng/ml of ^125I-PDGF-BB in binding buffer (PBS containing 1 mg/ml of bovine serum albumin). Aliquots were incubated with the receptor expressing PAE-1 cells plated in 24-well culture dishes on ice for 90 minutes. After three washes with binding buffer, cell-bound 125]-PDGF-BB was extracted by lysis of cells in 20 mM Tris-HCl, pH 7.5, 10% glycerol, 1% Triton X-100. The amount of cell bound radioactivity was determined in a gamma-counter. A standard curve for the binding of ^125I-labeled PDGF BB homodimers to PAE-1 cells expressing PDGF alpha-receptor is shown in FIG. 18.

[3] = target: T2, PDGF beta receptors (Homo sapiens, UniProt P09619); test: Competition with 125I-PDGF-BB for binding to PAE-1 cells expressing PDGF beta-receptor; parameters: expressed in transfected cells; settings: 5 ng/ml 125I-PDGF-BB tracer, on ice 90 minutes
Protocol: as §1

[4] = target: T1, PDGF alpha receptors; test: PDGF alpha-receptor phosphorylation in PAE cells; format: cell-based; parameters: expressed in transfected cells; settings: 100 ng/ml
Protocol: To test if PDGF-C causes increased phosphorylation of the PDGF alpha-receptor, full length and truncated PDGF-C were tested for their capacity to bind to the PDGF alpha-receptor and stimulate increased phosphorylation. Serum-starved porcine aortic endothelial (PAE) cells stably expressing the human PDGF alpha-receptor were incubated on ice for 90 minutes with PBS supplemented with 1 mg/ml BSA and 10 ng/ml of PDGF-AA, 100 ng/ml of full length human PDGF-CC homodimers (flPDGF-CC), 100 ng/ml of truncated PDGF-CC homodimers (cPDGF-CC), or a mixture of 10 ng/ml of PDGF-AA and 100 ng/ml of truncated PDGF-CC. Full length and truncated PDGF-CC homodimers were produced as described above. Sixty minutes after the addition of the polypeptides, the cells were lysed in lysis buffer (20 mM tris-HCl, pH 7.5, 0.5% Triton X-100, 0.5% deoxycholic acid, 10 mM EDTA, 1 mM orthovanadate, 1 mM PMSF 1% Trasylol). […] Bound antibodies were detected using enhanced chemiluminescence (ECL, Amersham Inc). The filters were then stripped and reprobed with the PDGF alpha-receptor rabbit antisera, and the amount of receptors was determined by incubation with horseradish peroxidase-conjugated anti-rabbit antibodies. Bound antibodies were detected using enhanced chemiluminescence (ECL, Amersham Inc). […]

[5] = target: T1, PDGF alpha receptors; test: Binding of radiolabeled truncated PDGF-C to PAE-1 cells expressing PDGF alpha receptors; parameters: expressed in transfected cells; host or cells: porcine aortic endothelial (PAE-1) cells; settings: 125I-labeled protein, on ice 90 minutes
Protocol: (§2) To assess the interactions between truncated PDGF-C and the PDGF alpha and beta receptors, truncated PDGF-C was tested for its capacity to bind to porcine aortic endothelial-1 (PAE-1) cells expressing PDGF alpha or beta receptors, respectively (Eriksson et al., EMBO J, 1992 11:543-550). The binding experiments were performed essentially as described in Heldin et al. (EMBO J, 1988 7:1387 1393). Five micrograms of truncated PDGF-C protein in ten microliters of sodium borate buffer was radiolabeled using the Bolton-Hunter reagent (Amersham) to a specific activity of 4×10^5 cpm/ng. Different concentrations of radiolabeled truncated PDGF-C, with or without added unlabeled protein, in binding buffer (PBS containing 1 mg/ml of bovine serum albumin) was added to the receptor expressing PAE-1 cells plated in 24-well culture dishes on ice for 90 minutes. After three washes with binding buffer, cell-bound ^125I-labeled PDGF-C was extracted by lysis of cells in 20 mM Tris-HCl, pH 7.5, 10% glycerol, 1% Triton X-100. The amount of cell-bound radioactivity was determined in a gamma-counter. Non-specific binding was estimated by including a 100-fold molar excess of truncated PDGF-C in some experiments. […] The binding was specific as radiolabeled PDGF-C was quantitatively displaced by a 100-fold molar excess of unlabeled protein.

[6] = target: T2, PDGF beta receptors; test: Binding of radiolabeled truncated PDGF-C to PAE-1 cells expressing PDGF beta receptors; parameters: expressed in transfected cells; host or cells: porcine aortic endothelial (PAE-1) cells; settings: 125I-labeled protein, on ice 90 minutes
Protocol: as §2

T1 sequence (P16234 24-1089): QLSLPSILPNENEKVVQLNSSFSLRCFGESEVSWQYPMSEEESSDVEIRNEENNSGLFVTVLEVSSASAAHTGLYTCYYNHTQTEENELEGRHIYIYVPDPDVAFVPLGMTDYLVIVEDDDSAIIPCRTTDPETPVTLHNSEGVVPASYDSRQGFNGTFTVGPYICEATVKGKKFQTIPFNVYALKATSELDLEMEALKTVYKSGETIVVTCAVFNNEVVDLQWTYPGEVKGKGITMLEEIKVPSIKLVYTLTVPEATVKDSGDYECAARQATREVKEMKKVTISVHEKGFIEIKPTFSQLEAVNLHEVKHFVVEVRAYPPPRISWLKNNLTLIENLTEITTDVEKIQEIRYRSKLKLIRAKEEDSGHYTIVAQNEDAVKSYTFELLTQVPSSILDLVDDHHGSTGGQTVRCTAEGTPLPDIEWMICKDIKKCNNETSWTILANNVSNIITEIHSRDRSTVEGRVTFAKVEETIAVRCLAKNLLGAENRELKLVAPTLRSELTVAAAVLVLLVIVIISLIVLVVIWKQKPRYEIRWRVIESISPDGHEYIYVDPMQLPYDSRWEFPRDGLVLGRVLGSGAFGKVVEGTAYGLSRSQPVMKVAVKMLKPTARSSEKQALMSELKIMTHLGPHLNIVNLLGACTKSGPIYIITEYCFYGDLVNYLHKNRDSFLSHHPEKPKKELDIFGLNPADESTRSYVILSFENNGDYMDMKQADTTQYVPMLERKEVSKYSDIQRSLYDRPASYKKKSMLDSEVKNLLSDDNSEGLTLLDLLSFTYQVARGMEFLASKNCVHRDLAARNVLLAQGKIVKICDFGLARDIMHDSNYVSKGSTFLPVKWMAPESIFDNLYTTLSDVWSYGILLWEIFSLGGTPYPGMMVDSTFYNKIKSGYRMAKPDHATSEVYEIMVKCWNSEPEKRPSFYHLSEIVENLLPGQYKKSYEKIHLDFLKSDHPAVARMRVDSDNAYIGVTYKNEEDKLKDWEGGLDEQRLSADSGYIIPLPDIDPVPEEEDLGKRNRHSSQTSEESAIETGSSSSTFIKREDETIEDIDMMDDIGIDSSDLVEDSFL
T2 sequence (P09619 33-1106): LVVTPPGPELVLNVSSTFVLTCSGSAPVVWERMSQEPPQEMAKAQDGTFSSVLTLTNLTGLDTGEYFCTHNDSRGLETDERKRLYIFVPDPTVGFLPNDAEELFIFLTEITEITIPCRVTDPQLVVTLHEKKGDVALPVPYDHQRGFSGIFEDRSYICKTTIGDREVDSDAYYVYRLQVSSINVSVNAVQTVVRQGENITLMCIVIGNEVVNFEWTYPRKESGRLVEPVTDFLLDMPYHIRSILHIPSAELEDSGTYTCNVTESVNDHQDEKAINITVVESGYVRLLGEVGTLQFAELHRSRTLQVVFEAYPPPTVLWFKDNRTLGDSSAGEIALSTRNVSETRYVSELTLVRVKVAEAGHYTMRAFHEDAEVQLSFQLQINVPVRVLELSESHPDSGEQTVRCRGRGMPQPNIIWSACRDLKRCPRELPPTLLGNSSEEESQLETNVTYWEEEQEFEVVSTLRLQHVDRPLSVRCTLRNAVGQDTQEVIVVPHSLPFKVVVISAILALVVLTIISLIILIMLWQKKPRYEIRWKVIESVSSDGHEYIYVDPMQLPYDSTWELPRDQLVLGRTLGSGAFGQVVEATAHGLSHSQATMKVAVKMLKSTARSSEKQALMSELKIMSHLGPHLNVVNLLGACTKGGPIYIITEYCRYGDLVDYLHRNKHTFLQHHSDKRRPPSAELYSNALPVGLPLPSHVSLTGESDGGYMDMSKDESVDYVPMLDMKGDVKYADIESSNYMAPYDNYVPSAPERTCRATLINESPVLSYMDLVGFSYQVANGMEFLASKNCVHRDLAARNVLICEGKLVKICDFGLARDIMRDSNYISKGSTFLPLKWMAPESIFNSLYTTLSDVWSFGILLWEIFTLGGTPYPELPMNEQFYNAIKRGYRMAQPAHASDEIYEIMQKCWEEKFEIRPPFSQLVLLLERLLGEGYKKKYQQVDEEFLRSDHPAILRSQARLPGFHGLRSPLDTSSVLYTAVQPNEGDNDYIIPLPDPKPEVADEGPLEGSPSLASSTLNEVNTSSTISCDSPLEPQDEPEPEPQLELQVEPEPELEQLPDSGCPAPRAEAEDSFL

B1: PDGF-CC: recombinant human PDGF-CC core domain homodimer, residues 230-345 of full-length PDGF-C (SEQ ID NO:40), produced in baculovirus infected insect cells (protein)
chain: GRKSRVVDLNLLTEEVRLYSCTPRNFSVSIREELKRTDTIFWPGCLLVKRCGGNCACCLHNCNECQCVPSKVTKKYHEVLQLRPKTGVRGLHKSLTDVALEHHEECDCVCRGSTGG
modifications: homodimer; PDGF-C core domain
mitogenic activity on fibroblasts [1]: potent mitogen | competition for binding to the PDGF alpha-receptor [2]: efficiently competed | competition for binding to the PDGF beta-receptor [3]: failed to compete | PDGF alpha-receptor tyrosine phosphorylation [4]: efficiently induced | binding to cells expressing PDGF alpha receptors [5]: binds | binding to beta receptor expressing cells [6]: not
